Publication PMC4434891, “The Smc5-Smc6 heterodimer associates with DNA through several independent binding domains” (Scientific Reports, 2015)

Target: T1, Smc6 FL (full-length Smc6) (UniProt Q12749 1-1114)
T1 construct: Smc6, full length, residues 1-1114; Vector YEpFAT4; also called FL Smc6; source: yeast, purified as previously described (StrepTrap column)
T1 sequence (looked up): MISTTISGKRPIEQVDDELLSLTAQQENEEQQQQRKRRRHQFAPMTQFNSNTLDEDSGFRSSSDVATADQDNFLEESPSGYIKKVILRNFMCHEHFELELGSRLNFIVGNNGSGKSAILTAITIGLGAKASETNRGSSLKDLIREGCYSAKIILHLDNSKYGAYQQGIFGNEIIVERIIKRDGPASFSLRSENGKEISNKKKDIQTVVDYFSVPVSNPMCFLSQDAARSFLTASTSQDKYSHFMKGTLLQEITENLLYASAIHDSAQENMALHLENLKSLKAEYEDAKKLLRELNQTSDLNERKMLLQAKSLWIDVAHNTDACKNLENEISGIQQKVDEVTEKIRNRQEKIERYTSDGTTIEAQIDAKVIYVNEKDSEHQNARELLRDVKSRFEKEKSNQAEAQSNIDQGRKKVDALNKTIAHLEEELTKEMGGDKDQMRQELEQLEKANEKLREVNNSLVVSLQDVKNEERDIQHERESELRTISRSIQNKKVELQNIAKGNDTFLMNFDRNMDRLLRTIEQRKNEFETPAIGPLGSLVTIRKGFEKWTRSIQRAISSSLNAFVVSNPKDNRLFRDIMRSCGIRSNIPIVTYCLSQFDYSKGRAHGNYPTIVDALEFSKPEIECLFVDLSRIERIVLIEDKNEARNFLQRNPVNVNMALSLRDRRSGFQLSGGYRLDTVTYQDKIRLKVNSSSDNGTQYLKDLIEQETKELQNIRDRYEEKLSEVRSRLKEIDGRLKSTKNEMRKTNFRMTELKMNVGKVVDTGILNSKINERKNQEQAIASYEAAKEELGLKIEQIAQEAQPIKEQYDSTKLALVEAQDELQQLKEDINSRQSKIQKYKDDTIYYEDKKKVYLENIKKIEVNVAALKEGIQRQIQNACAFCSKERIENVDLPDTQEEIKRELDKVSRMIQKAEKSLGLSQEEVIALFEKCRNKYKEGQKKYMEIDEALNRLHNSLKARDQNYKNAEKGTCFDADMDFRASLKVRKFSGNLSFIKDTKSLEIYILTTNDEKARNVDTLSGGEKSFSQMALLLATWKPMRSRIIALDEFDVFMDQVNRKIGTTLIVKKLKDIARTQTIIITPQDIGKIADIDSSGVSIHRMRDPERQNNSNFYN
Experiment: SEC; StrepTrap eluates of Smc6 (5 mL) and Smc5 (150 uL) mixed, overnight at 4 °C, concentrated; complexes separated from monomeric subunits on Superose 6 10/300 in buffer G (25 mM potassium phosphate pH 8.0, 750 mM NaCl, 15% glycerol, 0.2% Tween 20, 2 mM 2-ME, 1 mM EDTA)
Settings: both partners purified

binding result: binds
B1: Smc5 FL (full-length Smc5) (natural protein, UniProt Q08204 1-1093, looked up)
chain: MTSLIDLGRYVERTHHGEDTEPRSKRVKIAKPDLSSFQPGSIIKIRLQDFVTYTLTEFNLSPSLNMIIGPNGSGKSTFVCAVCLGLAGKPEYIGRSKKVEDFIKNGQDVSKIEITLKNSPNVTDIEYIDARDETIKITRIITRSKRRSDYLINDYQVSESVVKTLVAQLNIQLDNLCQFLSQERVEEFARLKSVKLLVETIRSIDASLLDVLDELRELQGNEQSLQKDLDFKKAKIVHLRQESDKLRKSVESLRDFQNKKGEIELHSQLLPYVKVKDHKEKLNIYKEEYERAKANLRAILKDKKPFANTKKTLENQVEELTEKCSLKTDEFLKAKEKINEIFEKLNTIRDEVIKKKNQNEYYRGRTKKLQATIISTKEDFLRSQEILAQTHLPEKSVFEDIDIKRKEIINKEGEIRDLISEIDAKANAINHEMRSIQRQAESKTKSLTTTDKIGILNQDQDLKEVRDAVLMVREHPEMKDKILEPPIMTVSAINAQFAAYLAQCVDYNTSKALTVVDSDSYKLFANPILDKFKVNLRELSSADTTPPVPAETVRDLGFEGYLSDFITGDKRVMKMLCQTSKIHTIPVSRRELTPAQIKKLITPRPNGKILFKRIIHGNRLVDIKQSAYGSKQVFPTDVSIKQTNFYQGSIMSNEQKIRIENEIINLKNEYNDRKSTLDALSNQKSGYRHELSELASKNDDINREAHQLNEIRKKYTMRKSTIETLREKLDQLKREARKDVSQKIKDIDDQIQQLLLKQRHLLSKMASSMKSLKNCQKELISTQILQFEAQNMDVSMNDVIGFFNEREADLKSQYEDKKKFVKEMRDTPEFQSWMREIRSYDQDTKEKLNKVAEKYEEEGNFNLSFVQDVLDKLESEIAMVNHDESAVTILDQVTAELRELEHTVPQQSKDLETIKAKLKEDHAVLEPKLDDIVSKISARFARLFNNVGSAGAVRLEKPKDYAEWKIEIMVKFRDNAPLKKLDSHTQSGGERAVSTVLYMIALQEFTSAPFRVVDEINQGMDSRNERIVHKAMVENACAENTSQYFLITPKLLTGLHYHEKMRIHCVMAGSWIPNPSEDPKMIHFGETSNYSFD
notes: Smc5, full length, residues 1-1093; Vector YEpFAT4; also called FL Smc5; source: yeast, purified as previously described (StrepTrap column)
